Here are results for 41 sequences from the nanobody polyreactivity screen of Harvey et al. (2022).

The data set in a line: yeast display, Sf9 membrane polyspecificity reagent, FACS + sequencing; frameworks hold sequencing errors. In outline: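 In a synthetic yeast display library (Saccharomyces cerevisiae BJ5465), nanobody expression was induced with galactose for 36–48 hours. FACS gates were set low and high (top ~1%) using anti-HA fluorescence for expression and streptavidin fluorescence for binding of the Sf9 membrane reagent. Each polyreactivity label is drawn from the gate of origin.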
Regarding “QVQLVESGGGLVQAGGSLRLSCAASGFIFKLYAMGWYRQAPGKERELVAAIRSSGGSTYYADSVKGRFTISRDNAKNTVYLQMNSLKPEDTAVYYCAKVGGRVRYNYWGQGTQVTVSS”, the “polyreactivity (PSR sort gate)” value is “high polyreactivity”. For “QVQLVESGGGLVQAGGSLRLSCAASGFIFKRYAMGWYRQAPGKERELVATISNSGGRTYYADSVKGRFTISRDNAKNTVYLQINSLKPEDTAVYYCDALPFWWGGYWGQGTQVTVSS” the value was “high polyreactivity”; for “QVQLVESGGGLVQAGGSLRLSCAASGFIFKRYAMGWYRQAPGKERELVAVITRSGGSTYYADSVKGRFTISRDNAKNTVYLQMNSLKPEDTAVYYCAVDFTDRGYDYWGQGTQVTVSS”, “high polyreactivity”; for “QVQLVESGGGLVQAGGSLRLSCAASGFIFKSYAMGWYRQAPGKETELVAAISRSGSSTYYADSVKGRFTISRDNAKNTVYLQMNSLKPEDTAVYYCAKKGYRFIHFGYDYWGQGTQVTVSS”, “high polyreactivity”. For “QVQLVESGGGLVQAGGSLRLSCAASGFIFKYYAMGWYRQAPGKERELVAAISRRGGSTFYADSVKGRFTISRDNAKNTVYLQMNSLKPEDTAVYYCAAYYYYSAYGDDYWGQGTQVTVSS” the value was “high polyreactivity”; for “QVQLVESGGGLVQAGGSLRLSCAASGFIFLFYAMGWYRQAPGKERELVAAISSGVSTNYADSVKGRFTISRDNAKNTVYLQMNSLKPEDTAVYYCNTTQSTSLLYDYWGQGTQVTVSS”, “low polyreactivity”. Then “QVQLVESGGGLVQAGGSLRLSCAASGFIFLIYAIGWYRQAPGTERELVATIRYSGGRTYYADSVKGRFTISRDNAKNTVYLQMNSLKPEDTAVYYCAARSVWFSGQGRMNYWGQGTQVTGSS”, with “high polyreactivity”. “QVQLVESGGGLVQAGGSLRLSCAASGFIFLPNDMGWYRQAPGKEREFVAAIDWSGGSTYYADSVKGRFTISRDNAKNTVYLQMNSLKPEDTAVYYCNAEGRRVGFRIDYDYWGQGTQVTVSS”: the “polyreactivity (PSR sort gate)” value is “low polyreactivity”. “QVQLVESGGGLVQAGGSLRLSCAASGFIFLPYAMGWYRQEPGKERELVAAITRGGRTYYADSVKGRFTISRDNAKNTVSLQMNSLKPEVTAVSYFAATPYLFWGYNYWGQGTQVTVSS”: the “polyreactivity (PSR sort gate)” value is “low polyreactivity”. Then “QVQLVESGGGLVQAGGSLRLSCAASGFIFLSNAMGWYRQAPGKERELVAAITSGGSTNYADSVKGRFTISRDNAKNTVYLQMNSLKPEDTAVYYCAARAPQWTFALGRWDRDYWGQGTQVTVSS”, with “low polyreactivity”; and “QVQLVESGGGLVQAGGSLRLSCAASGFIFLSNGMVWYRQAPGKERELVAAISSSGGSTYYADSVKGRFTISRDTAKNTVYLQMNSLKPEDTAVYYCAKDNGPWFAYDYWGQGSQVTVSS”, with “low polyreactivity”; and “QVQLVESGGGLVQAGGSLRLSCAASGFIFLYNAMGWYRPAPGKERQLVAAITSSGATTYYADSVKGRFTISRDNAKNTDYLQMNSLKPEDTAVYYCAARYTGRNGGSTTPEYDYWGQGTQVTVSS”, with “low polyreactivity”.

Regarding “QVQLVESGGGLVQAGGSLRLSCAASGFIFLYNTMGWYRQAPGKERELVAAISGGGGSTSYADSVKGRFTISRDNAKNTVYLQMNSLKPEDTAVYYCAKKSTYYKWSRMYWGQGTQVTVSS”, the “polyreactivity (PSR sort gate)” value is “high polyreactivity”. On to “QVQLVESGGGLVQAGGSLRLSCAASGFIFLYYAMGWYRPAPGKEGELVAAISRSGGRTYYADSVKGRFTISRDNAKNTVYLQMNSLKPEDTAGYYCAARSARTSSFPIFYYWGQGTQVTVSS”, for which the “polyreactivity (PSR sort gate)” value is on record as “high polyreactivity”. Consider “QVQLVESGGGLVQAGGSLRLSCAASGFIFLYYAMGWYRQAPGKERELVADISRGADTKYADSVKGRFTISRDNAKNTVYLQMNSLKPEDTAVYYCATDITTFWVPYPGVELGYWGQGTQVTVSS”, for which the “polyreactivity (PSR sort gate)” value is recorded as “low polyreactivity”. Then “QVQLVESGGGLVQAGGSLRLSCAASGFIFNHYAMGWYRQAPGKEREFVAAISWSGGSTYYADSVKGRFTISRDNAKNTVYLQMNSLKPEDTAVYYCAASYNGLWHGDYDYWGQGTQVTVSS”, with “low polyreactivity”; and “QVQLVESGGGLVQAGGSLRLSCAASGFIFNKYAMGWYRPAPGKERELVARITSSGSRTYYADSVKGRFTISRDKAKNTVYLQMISLKPEDTAVYYCNTYYHWLTMDYWGQGTQVTVSS”, with “high polyreactivity”.

With “QVQLVESGGGLVQAGGSLRLSCAASGFIFNVNAMGWYRQAPGKEREFVAVSTYADSVKGRFTISRDNAKNTVYLQMNSLKPEDTAVYYCAATFVQPVYDYDYWGQGTQVTVSS”, the “polyreactivity (PSR sort gate)” value is “low polyreactivity”.

Turning to “QVQLVESGGGLVQAGGSLRLSCAASGFIFNWYAMGWYRQAPGKERELVAVITSSGGSTYYADSVKGRFTISRDNAKNTVYLQMNSLKPDDTAVYYCNKKPGPAPNKYRITARYYYWGQGTQVTVSS”, the “polyreactivity (PSR sort gate)” value is given as “high polyreactivity”. For “QVQLVESGGGLVQAGGSLRLSCAASGFIFNYYTMGWYRQAPGKEREFVAAIRRSGTRTYYADSVKGRFTISRDNAKNTVYLQMNSLKPEDTAVYYCAARGTSPGHGTYTRTRGQRYYYWGQGTQVTVSS” the value was “high polyreactivity”; for “QVQLVESGGGLVQAGGSLRLSCAASGFIFPDYAMGWYRQAPGKERELVAAISFRDGSTYYADSVKGRFTISRDNAKNTVYFQINSLKPEDTAVYYCNAGPQYDVHEYYYWGQGSQVTVSS”, “low polyreactivity”; for “QVQLVESGGGLVQAGGSLRLSCAASGFIFPFYAMGWYRQAPGKERELVAVIRTSSDRTYYADSVKGRFTISRDNAKNTVYLQMNSLKPEDTAVYYCAAETYRLFDYLGQGTQVTVSS”, “low polyreactivity”. Consider “QVQLVESGGGLVQAGGSLRLSCAASGFIFPGYAMGSYRQAPGKERELVAAISRRGGRTYYADSVKGRFTISRDNAKNTVYLQMNSLKPEDTAVYYCAAVVQSTQYICDYWGQGTQVTVSS”, for which the “polyreactivity (PSR sort gate)” value is recorded as “high polyreactivity”. Then “QVQLVESGGGLVQAGGSLRLSCAASGFIFPGYTRGWYRQAPGKEWELVAAISRGSSTYYADSVKGRFTISRDNAKNTVYLQMNSLKPEDTSVYYCNTRVYAITLYDYWGQGTQVTVSS”, with “low polyreactivity”; and “QVQLVESGGGLVQAGGSLRLSCAASGFIFPHYAMGGYRQAPGKERELIAAISKSGDSTYYADSVKGRFTISRDNAKNTVYLQMNSLKPEDTAVYYCARRGRSLRWKYDYWGQGTQVTVSS”, with “low polyreactivity”; and “QVQLVESGGGLVQAGGSLRLSCAASGFIFPLYAMGWYRQAPGKERELVAAITWRGDTTSYADSVKGSFTISRDNAKNTVYLQMNSLKPEDTAVYYCAAEFYDWWYYGGGEYWGQGTQVTVSS”, with “high polyreactivity”. Consider “QVQLVESGGGLVQAGGSLRLSCAASGFIFPRYAMGWYRPAPGTERELVAAISRSGGITRYADSVKGRFTISRDNAKNTVYLQINSLKPEDTAVYYCAAYIQGWVTAEWVRDDYWGQGTQVTVSS”, for which the “polyreactivity (PSR sort gate)” value is reported as “high polyreactivity”.

For “QVQLVESGGGLVQAGGSLRLSCAASGFIFPSNAMGWYRQAPGKERELVAAISSRGTRTYYADSVKGRFTISRDNAKNTVYLQMNSLKPEDTAVYYCAKYGYWGQGTQVTVSS”, the “polyreactivity (PSR sort gate)” value is “high polyreactivity”. For “QVQLVESGGGLVQAGGSLRLSCAASGFIFPSNSMGWYRQAPGKEREFVAAISSRGGSTTYADSVKGRFTISRDYAKNTVYLQMNSLKPEDTAVYYCARDWYYYPQYRQRYYYWGQGTQVTVSS” the value was “high polyreactivity”.

Turning to “QVQLVESGGGLVQAGGSLRLSCAASGFIFPSYAMGWYRQAPGKERELVAAISWTGGTYYADSEKGRFTISRDNAKNTVYFQMNSRKPEDTAVYYCAVRYKRKGSGYRTNAYDYWGQGTQVTVSS”, the “polyreactivity (PSR sort gate)” value is “high polyreactivity”. On to “QVQLVESGGGLVQAGGSLRLSCAASGFIFPTNTMGWYRQAPGKEREFVARITRSGTNTYYADSVKGRFTISRDNAKNTVYLQMNSLKPEDTAVYYCARRGTSSYRRYWLDSASNMDYWGQGTQVTVSS”, for which the “polyreactivity (PSR sort gate)” value is listed as “high polyreactivity”. Regarding “QVQLVESGGGLVQAGGSLRLSCAASGFIFPVNAMGWYRQAPGKERELVAAITSSGGDTYYADSVKGRFTISRDNAKNTVYLQMNSLKPEDTAVYYCAAEYTQEQEDYDYWGQGTQVTVSS”, the “polyreactivity (PSR sort gate)” value is on record as “low polyreactivity”. Then “QVQLVESGGGLVQAGGSLRLSCAASGFIFPVNGMGWYRQAPGKERELVAGITRTGTSTYYADSVKGRFTISRDNAKYTVYLQMNSLKPEDTAVYYCAADLYTGRTKYWEFESWGQGTQVTVSS”, with “low polyreactivity”. On to “QVQLVESGGGLVQAGGSLRLSCAASGFIFPYYTMGWYGQARGKERELVAAISYSGGSTYYADSVKGRFTISRDKAKNTVYLQMNSLKPEDTAVYYCNADPPLIVYKVWFLLDYWGQGTQVTVTS”, for which the “polyreactivity (PSR sort gate)” value was “high polyreactivity”.

As to “QVQLVESGGGLVQAGGSLRLSCAASGFIFQDNAMGWYRQAPGKERELVAAIRSTGSTNYADSVKGRFTISRDNAKNTVYLQMNSLKPEDTAVYYCNAGKYQSDTPSLVPTEYPAFYYWGQGTQVTVSS”, the “polyreactivity (PSR sort gate)” value was “low polyreactivity”. With “QVQLVESGGGLVQAGGSLRLSCAASGFIFQDYAMGWYRQAPGKERELVAAITQSSGSTYYADSVKGRFTISRDNAKNTVYLQMNSLKPEDTAVYYCNTAYDFSRQASYDYWGQVTQVTVSS”, the “polyreactivity (PSR sort gate)” value is on record as “low polyreactivity”. Turning to “QVQLVESGGGLVQAGGSLRLSCAASGFIFQKYAMGWYRQAPGKERELVAAISRSGGSTYYADSVKGRFTISRDNAKNTVYLQMNSLKPEDTAVYYCNAVYSTSRDYWGQGTQVTVSS”, the “polyreactivity (PSR sort gate)” value was “high polyreactivity”. In the case of “QVQLVESGGGLVQAGGSLRLSCAASGFIFQPYAMGWYRQAPGKERELVAAINFSGGSTYYADSVKGRFTISRDNAKNTVYLQMNSLKPEDTAVYYCARAGRYAAYSPFYYWGQGTQVTVSS”, the “polyreactivity (PSR sort gate)” value is listed as “high polyreactivity”.

In the case of “QVQLVESGGGLVQAGGSLRLSCAASGFIFQRYAMGWYRQAPGKERELVAAISWSGGITYYADSVKGRFTISRDNAKNTVYLQMNSLKPEDTAVYYCAAGLAVGDYYWGQGTQVTVSS”, the “polyreactivity (PSR sort gate)” value is reported as “high polyreactivity”. For “QVQLVESGGGLVQAGGSLRLSCAASGFIFQSYAMGWYRQAPGKERELVAAISSRGGSTYYADSVKGRFTISRDIAKNTVYLQMNSLKPEDTAVYYCAADLYGNEYDYWGQGTQVTVSS” the value was “low polyreactivity”; for “QVQLVESGGGLVQAGGSLRLSCAASGFIFQSYAMGWYRQAPGKERQLVAAISYTGGSTYYADSVKGRFTISRDNAKNTVYLQMNSLKPEDTAVYYCARSYYTNGNALKRDYWGQGTQVTVSS”, “high polyreactivity”.
